Measured values published in patent US20110159022A1, “Immunogenic Peptides Derived from the Midkine Protein, as an Anticancer Vaccine” (priority 2008, published 2011).
Where no end group is shown, it is not given here.

Molecular target: T1, HLA-DR13 (DRB1*1301) (human)
T1 chain 1: not shown
T1 chain 2: not shown
Experiment: competition ELISA, nonbiotinylated reference peptide against its biotinylated tracer

B1: B1 21-36 (nonbiotinylated reference peptide) (peptide)
peptide: TERVRLVTRHIYNREE
modifications: not fully specified
In the case of B1, the IC50 is reported as 39 nM.
